One block for each binder: values may come before it. Starred links: 1 amine or outer side, 2 acyl side, 3 side chain; linkers in the order of their positions; H or OH if unused. Positions of bridges follow the written chain, without caps; N, C: chain ends. Non-standard residues stand in square brackets, D forms with d. No end group written: not given here. TATA = O=C(CC[*:1])N1CN(C(=O)CC[*:2])CN(C(=O)CC[*:3])C1; 1Nal = N[C@@H](Cc1cccc2ccccc12)C(=O)O; Hyp = O=C(O)[C@@H]1C[C@@H](O)CN1; hArg = N=C(N)NCCCC[C@H](N)C(=O)O; Pen = CC(C)(S)[C@H](N)C(=O)O; hCys = N[C@@H](CCS)C(=O)O; βAla = NCCC(=O)O; Sar = CNCC(=O)O
Tests used:
[1] = target: Human Nectin-4 (human) (UniProt Q96NY8); assay: SPR (Biacore 8K), Nectin-4 amine-coupled on CM5 chip, compound as analyte, multi-cycle kinetics, 1:1 model
Sequence of Human Nectin-4 (human) (Q96NY8 32-349 limits assumed): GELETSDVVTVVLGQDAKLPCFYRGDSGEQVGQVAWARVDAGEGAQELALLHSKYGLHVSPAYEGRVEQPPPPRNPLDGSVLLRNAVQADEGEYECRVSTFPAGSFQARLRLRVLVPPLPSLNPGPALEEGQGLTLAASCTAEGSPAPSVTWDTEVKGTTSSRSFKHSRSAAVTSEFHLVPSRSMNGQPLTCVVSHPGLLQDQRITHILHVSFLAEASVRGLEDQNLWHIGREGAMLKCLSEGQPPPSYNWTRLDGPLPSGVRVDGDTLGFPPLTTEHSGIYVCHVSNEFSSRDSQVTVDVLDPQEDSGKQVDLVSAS

[2] = target: Human Nectin-4 (human) (UniProt Q96NY8); assay: SPR (Biacore 8K), Nectin-4 amine-coupled on CM5 chip, compound as analyte, multi-cycle kinetics, 1:1 model; average of two tests

- Kd [1]: 4.13 nM
B1: Acetate salt of PDC_3 (peptide)
peptide: [βAla][Sar][Sar][Sar][Sar][Sar][Sar][Sar][Sar][Sar][Sar]K[Sar]DCP[1Nal][dD][Pen]M[hArg]DWSTP[Hyp]W[hCys]
modifications: not fully specified (C-terminus); cysteine pairing not given here; also: further groups not given here, drug-linker INT_1 coupled, site not given here, acetate salt

- Kd [2]: 0.43 nM
B2: Acetate salt of PDC_2 (peptide)
peptide: [βAla][Sar][Sar][Sar][Sar][Sar][Sar][Sar][Sar][Sar][Sar]K[Sar]DCP[1Nal][dD][Pen]M[hArg]DWSTP[Hyp]WC-NH2
modifications: lactam 12-14; linker 15-19-29 via TATA; also: drug-linker INT_1 coupled, site not given here, acetate salt

- Kd [1]: 1.4 nM
B3: Acetate salt of PDC_1 (peptide)
peptide: [βAla][Sar][Sar][Sar][Sar][Sar][Sar][Sar][Sar][Sar][Sar]K[hArg]DCP[1Nal][dD][Pen]M[hArg]DWSTP[Hyp]WC-NH2
modifications: lactam 12-14; linker 15-19-29 via TATA; also: drug-linker INT_1 coupled, site not given here, acetate salt
